Here are results for one protein from publication PMC9287412, “Cryo-EM structure of the human Kv3.1 channel reveals gating control by the cytoplasmic T1 domain” (Nature Communications, 2022).

The stoichiometry N is the number of molecules, sites or subunits per partner or assembly.

The data set deals with the molecule itself. As to the kind of experiment: cryo-EM structure; purified Kv3.1a, 20 uM, in 20 mM HEPES pH 7.5, 100 mM NaCl, 50 mM KCl, 0.04% digitonin; apo, with 1 mM EDTA or with 400 uM ZnCl2; subunits within the tetrameric channel.

B1: human Kv3.1a channel (full-length human Kv3.1, isoform A) (natural protein, UniProt P48547 1-511, looked up)
chain: MGQGDESERIVINVGGTRHQTYRSTLRTLPGTRLAWLAEPDAHSHFDYDPRADEFFFDRHPGVFAHILNYYRTGKLHCPADVCGPLYEEELAFWGIDETDVEPCCWMTYRQHRDAEEALDSFGGAPLDNSADDADADGPGDSGDGEDELEMTKRLALSDSPDGRPGGFWRRWQPRIWALFEDPYSSRYARYVAFASLFFILVSITTFCLETHERFNPIVNKTEIENVRNGTQVRYYREAETEAFLTYIEGVCVVWFTFEFLMRVIFCPNKVEFIKNSLNIIDFVAILPFYLEVGLSGLSSKAAKDVLGFLRVVRFVRILRIFKLTRHFVGLRVLGHTLRASTNEFLLLIIFLALGVLIFATMIYYAERIGAQPNDPSASEHTHFKNIPIGFWWAVVTMTTLGYGDMYPQTWSGMLVGALCALAGVLTIAMPVPVIVNNFGMYYSLAMAKQKLPKKKKKHIPRPPQLGSPNYCKSVVNSPHHSTQSDTCPLAQEEILEINRAGRKPLRGMSI
notes: Voltage-gated potassium channel Kv3.1, human, shorter splice variant Kv3.1a (isoform A, α-isoform), full length, cloned from the mammalian gene collection; Homotetramer in the cryo-EM structures; the longer Kv3.1b was not used; also called shorter α-isoform of Kv3.1; KCNC1 gene product; not shown: Strep-II, C-terminal, cleaved; His10, C-terminal, cleaved; GFP, C-terminal, cleaved
B1: the “stoichiometry N” value amounted to 4.
